Measurements reported in article PMC5374410, “Identification of a Potent Allosteric Inhibitor of Human Protein Kinase CK2 by Bacterial Surface Display Library Screening” (Pharmaceuticals, 2017).

Key:
[1] = target: recombinant human protein kinase CK2 holoenzyme coupled to fluorescein isothiocyanate (FITC) (human) (UniProt P68400)
[2] = target: CK2α-pAzF coupled to DBCO-Sulfo-Cy5 (human) (UniProt P68400); experiment: MST; B2 titrated (7.6 nM to 125 or 250 µM) to 100 nM fluorophore-labelled CK2α-DBCO-Sulfo-Cy5 or CK2β^1-193-Flu; 50 mM Tris/HCl pH 7.5, 25 mM NaCl, 20 mM MgCl2, Tween-20, DMSO; 37 °C, MST power 60%; Monolith NT.115; three independent measurements

Sequence of recombinant human protein kinase CK2 holoenzyme coupled to fluorescein isothiocyanate (FITC) (human) (P68400 whole entry, chain 1 of 2): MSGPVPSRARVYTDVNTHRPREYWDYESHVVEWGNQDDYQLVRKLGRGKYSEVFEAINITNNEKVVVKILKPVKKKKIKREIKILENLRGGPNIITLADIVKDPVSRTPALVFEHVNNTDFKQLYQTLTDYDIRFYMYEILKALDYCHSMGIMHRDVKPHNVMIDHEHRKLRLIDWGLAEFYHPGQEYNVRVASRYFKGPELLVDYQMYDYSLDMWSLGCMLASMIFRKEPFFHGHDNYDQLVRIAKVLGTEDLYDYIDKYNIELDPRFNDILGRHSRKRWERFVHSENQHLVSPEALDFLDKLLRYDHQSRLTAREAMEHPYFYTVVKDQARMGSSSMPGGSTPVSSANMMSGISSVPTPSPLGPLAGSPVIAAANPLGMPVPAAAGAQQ
Sequence of recombinant human protein kinase CK2 holoenzyme coupled to fluorescein isothiocyanate (FITC) (human) (P67870 whole entry, chain 2 of 2, further chain): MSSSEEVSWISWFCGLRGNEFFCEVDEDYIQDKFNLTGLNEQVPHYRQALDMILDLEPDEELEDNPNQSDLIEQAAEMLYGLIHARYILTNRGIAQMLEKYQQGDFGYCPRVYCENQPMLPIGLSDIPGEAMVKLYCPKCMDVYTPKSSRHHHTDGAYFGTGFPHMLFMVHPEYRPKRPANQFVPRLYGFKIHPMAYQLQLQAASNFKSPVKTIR

| Binder | percent inhibition of (unlabelled) CK2 holoenzyme at 10 µM peptide, CE assay [1] [%] | Kd [2] [nM] |
| --- | --- | --- |
| KHTKGPTAYCPL [peptide B1 (free synthetic peptide)] | < 5 | – |
| YRKPHWFIHTRI [peptide B3 (free synthetic peptide)] | < 5 | – |
| PCPAPRAPKLSI [peptide B4 (free synthetic peptide)] | 29 | – |
| DCRGLIVMIKLH [peptide B2 (free synthetic peptide)] | – | 2160 |
